For the test, the target named is MBP-tagged ADD domain of DNMT3A (476-614) (human, UniProt Q9Y6K1 476-614). Put plainly: peptide or protein array.

We go through one molecule from paper PMC9798253 (Protein Science : A Publication of the Protein Society, 2023).

B1: TRD 214–228 peptide (WT, 15mer, E214-T228) (peptide)
peptide: EKSPGKLLVKMPFQT
For the molecule B1, the binding result was “binds”.
